± gives the standard deviation of the averaged measurements.
Tests used:
Saccharomyces cerevisiae [1] = assay: protein stability index of tFT-peptide fusion (C-terminal peptide) (PSI (0-1 scale)); higher = more stable (slower turnover); conditions: genetic background: wild type; temperature: 30 C
Saccharomyces cerevisiae [2] = assay: as above
Method: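 MPS profiling in S. cerevisiae of the tFT-X12 degron library: putative degron peptides plus stable controls, 12 aa, fused to the C-terminus of a sfGFP-mCherry timer. Cells are FACS-sorted into 8 mCherry/sfGFP bins and deep-sequenced. PSI runs from 0 (unstable) to 1 (stable). Backgrounds are wild type, das1Δ and doa10Δ at 30 °C, and wild type, das1Δ, cdc34-1 and cdc53-1 at 37 °C; 2-3 technical replicates each.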

[3] = genetic background: cdc34-1, temperature: 37 C
[4] = genetic background: cdc53-1, temperature: 37 C
[5] = genetic background: das1 deletion, temperature: 30 C
[6] = genetic background: das1 deletion, temperature: 37 C
[7] = genetic background: doa10 deletion, temperature: 30 C
[8] = genetic background: wild type, temperature: 30 C
[9] = genetic background: wild type, temperature: 37 C
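Also: PSI is a weighted mean of sequencing reads over stability bins, variants kept only with over 10 reads, mCherry proximal and sfGFP distal, peptide attached via GGGS linker.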

Row | Sequence | protein stability index (Saccharomyces cerevisiae [1]) | protein stability index (Saccharomyces cerevisiae [2]; [3]) | protein stability index (Saccharomyces cerevisiae [2]; [4]) | protein stability index (Saccharomyces cerevisiae [2]; [5]) | protein stability index (Saccharomyces cerevisiae [2]; [6]) | protein stability index (Saccharomyces cerevisiae [2]; [7]) | protein stability index (Saccharomyces cerevisiae [2]; [8]) | protein stability index (Saccharomyces cerevisiae [2]; [9])
1 | LFFFVCYLATVK | 0.276 ± 0.053 | 0.198 ± 0.0088 | 0.347 ± 0.11 | 0.23 ± 0.032 | 0.416 ± 0.017 | 0.166 ± 0.011 | 0.191 ± 0.02 | 0.326 ± 0.0072
2 | LFGFYFVRCLVW | 0.226 ± 0.0096 | 0.113 ± 0.0026 | 0.168 ± 0.022 | 0.178 ± 0.022 | 0.263 ± 0.012 | 0.16 ± 0.017 | 0.159 ± 0.0095 | 0.23 ± 0.0099
3 | LFHFPSWIFCLL | 0.331 ± 0.0049 | 0.562 ± 0.02 | 0.612 ± 0.029 | 0.55 ± 0.036 | 0.688 ± 0.015 | 0.24361 ± 0.00024 | 0.251 ± 0.014 | 0.308 ± 0.016
4 | LFIRSFLFFSHF | 0.27 ± 0.0052 | 0.353 ± 0.0079 | 0.3482 ± 0.00057 | 0.498 ± 0.019 | 0.581 ± 0.016 | 0.248 ± 0.026 | 0.184 ± 0.025 | 0.307 ± 0.082
5 | LFLTSFRFLRLF | 0.162 ± 0.0047 | 0.337 ± 0.016 | 0.4813 ± 0.0027 | 0.509 ± 0.0094 | 0.597 ± 0.03 | 0.0803 ± 0.006 | 0.0691 ± 0.015 | 0.134 ± 0.03
6 | LFPLLCLLLPSL | 0.538 ± 0.065 | 0.614 ± 0.091 | 0.664 ± 0.033 | 0.548 ± 0.025 | 0.638 ± 0.0096 | 0.521 ± 0.027 | 0.522 ± 0.02 | 0.628 ± 0.0063
7 | LFTVCMIIQMVH | 0.177 ± 0.017 | 0.0516 ± 0.003 | 0.185 ± 0.0029 | 0.145 ± 0.036 | 0.273 ± 0.02 | 0.0793 ± 0.0011 | 0.1 ± 0.055 | 0.173 ± 0.016
8 | LFVGLVSFRIGA | 0.477 ± 0.029 | 0.563 ± 0.039 | 0.573 ± 0.014 | 0.428 ± 0.029 | 0.601 ± 0.0068 | 0.399 ± 0.018 | 0.419 ± 0.021 | 0.575 ± 0.0069
9 | LGCRFCFVGVVG | 0.494 ± 0.033 | 0.589 ± 0.011 | 0.632 ± 0.052 | 0.429 ± 0.021 | 0.634 ± 0.026 | 0.395 ± 0.01 | 0.439 ± 0.029 | 0.574 ± 0.022
10 | LGPLGWLVLLLV | 0.292 ± 0.035 | 0.415 ± 0.012 | 0.425 ± 0.014 | 0.353 ± 0.022 | 0.483 ± 0.0058 | 0.23 ± 0.015 | 0.22 ± 0.021 | 0.354 ± 0.0068
11 | LGWFVDFVFVVW | 0.4693 ± 0.0045 | 0.289 ± 0.0096 | 0.426 ± 0.037 | 0.27 ± 0.03 | 0.458 ± 0.012 | 0.244 ± 0.0045 | 0.274 ± 0.025 | 0.454 ± 0.0019
12 | LHASCVYTILLV | 0.389 ± 0.0049 | 0.427 ± 0.035 | 0.4584 ± 0.0012 | 0.351 ± 0.03 | 0.499 ± 0.0092 | 0.323 ± 0.019 | 0.304 ± 0.019 | 0.451 ± 0.0082
13 | LIARYTFLFCLC | 0.444 ± 0.031 | 0.553 ± 0.042 | 0.611 ± 0.015 | 0.531 ± 0.015 | 0.628 ± 0.021 | 0.3501 ± 0.0008 | 0.354 ± 0.024 | 0.488 ± 0.025
14 | LLCGVLFFFWVV | 0.42 ± 0.068 | 0.38 ± 0.018 | 0.496 ± 0.011 | 0.383 ± 0.03 | 0.525 ± 0.017 | 0.311 ± 0.0096 | 0.32 ± 0.021 | 0.451 ± 0.0076
15 | LLFSVLLLGVGF | 0.407 ± 0.035 | 0.425 ± 0.033 | 0.4723 ± 0.001 | 0.334 ± 0.023 | 0.5038 ± 0.0037 | 0.329 ± 0.024 | 0.324 ± 0.036 | 0.475 ± 0.0074
16 | LLGSRFVLIRSL | 0.185 ± 0.017 | 0.488 ± 0.028 | 0.571 ± 0.044 | 0.462 ± 0.026 | 0.621 ± 0.012 | 0.114 ± 0.014 | 0.121 ± 0.01 | 0.161 ± 0.009
17 | LLLRSSRLRVLS | 0.176 ± 0.065 | 0.543 ± 0.064 | 0.619 ± 0.03 | 0.607 ± 0.013 | 0.6521 ± 0.005 | 0.0852 ± 0.0037 | 0.0918 ± 0.02 | 0.149 ± 0.021
18 | LLLRWWLYSCCP | 0.42 ± 0.034 | 0.411 ± 0.027 | 0.495 ± 0.012 | 0.324 ± 0.032 | 0.4667 ± 0.0026 | 0.319 ± 0.016 | 0.328 ± 0.017 | 0.478 ± 0.012
19 | LLPFSLLDLLLC | 0.488 ± 0.066 | 0.658 ± 0.028 | 0.707 ± 0.021 | 0.58 ± 0.028 | 0.681 ± 0.016 | 0.361 ± 0.029 | 0.404 ± 0.017 | 0.607 ± 0.0088
20 | LLQCRTGLASGR | 0.518 ± 0.13 | 0.685 ± 0.032 | 0.732 ± 0.043 | 0.649 ± 0.013 | 0.748 ± 0.0087 | 0.652 ± 0.029 | 0.656 ± 0.043 | 0.718 ± 0.043

Row | Sequence | protein stability index (Saccharomyces cerevisiae [1]) | protein stability index (Saccharomyces cerevisiae [2]; [3]) | protein stability index (Saccharomyces cerevisiae [2]; [4]) | protein stability index (Saccharomyces cerevisiae [2]; [5]) | protein stability index (Saccharomyces cerevisiae [2]; [6]) | protein stability index (Saccharomyces cerevisiae [2]; [7]) | protein stability index (Saccharomyces cerevisiae [2]; [8]) | protein stability index (Saccharomyces cerevisiae [2]; [9])
21 | LLSGLVFVFVLG | 0.318 ± 0.02 | 0.293 ± 0.01 | 0.405 ± 0.026 | 0.238 ± 0.04 | 0.445 ± 0.0072 | 0.204 ± 0.0027 | 0.236 ± 0.028 | 0.425 ± 0.014
22 | LLSILSSLPLSR | 0.576 ± 0.12 | 0.579 ± 0.04 | 0.6106 ± 0.0022 | 0.585 ± 0.043 | 0.7073 ± 0.0042 | 0.654 ± 0.033 | 0.589 ± 0.024 | 0.656 ± 0.029
23 | LLVFSLLRPFLF | 0.501 ± 0.016 | 0.615 ± 0.072 | 0.643 ± 0.018 | 0.567 ± 0.039 | 0.6602 ± 0.0048 | 0.414 ± 0.028 | 0.417 ± 0.023 | 0.5623 ± 0.003
24 | LLVLRQYFFFFV | 0.295 ± 0.027 | 0.462 ± 0.026 | 0.531 ± 0.013 | 0.468 ± 0.035 | 0.606 ± 0.017 | 0.238 ± 0.012 | 0.224 ± 0.022 | 0.401 ± 0.011
25 | LPCPPSPASLPR | 0.498 ± 0.0076 | 0.676 ± 0.0092 | 0.7154 ± 0.0027 | 0.447 ± 0.013 | 0.634 ± 0.0069 | 0.437 ± 0.013 | 0.448 ± 0.0041 | 0.59 ± 0.019
26 | LPHIFFCLFSLL | 0.289 ± 0.026 | 0.582 ± 0.045 | 0.611 ± 0.047 | 0.562 ± 0.05 | 0.657 ± 0.066 | 0.203 ± 0.01 | 0.215 ± 0.024 | 0.317 ± 0.015
27 | LPPFRFSLPFRR | 0.712 ± 0.019 | 0.692 ± 0.044 | 0.7531 ± 0.0018 | 0.671 ± 0.013 | 0.705 ± 0.023 | 0.64 ± 0.024 | 0.658 ± 0.019 | 0.71 ± 0.036
28 | LPWLLLISFSYR | 0.286 | 0.149 ± 0.017 | 0.25 ± 0.037 | 0.202 ± 0.029 | 0.38 ± 0.0051 | 0.171 ± 0.0091 | 0.188 ± 0.029 | 0.378 ± 0.061
29 | LQSYIFSVRGIS | 0.533 ± 0.078 | 0.707 ± 0.02 | 0.697 ± 0.018 | 0.601 ± 0.029 | 0.707 ± 0.029 | 0.418 ± 0.054 | 0.45 ± 0.046 | 0.638 ± 0.0012
30 | LRMMLLVTIILE | 0.188 ± 0.037 | 0.0571 ± 0.0011 | 0.115 ± 0.0084 | 0.107 ± 0.028 | 0.216 ± 0.0072 | 0.0875 ± 0.023 | 0.0921 ± 0.025 | 0.198 ± 0.026
31 | LRVGVRSWGGKW | 0.433 ± 0.0069 | 0.4323 ± 0.0013 | 0.5125 ± 0.0013 | 0.4299 ± 0.0014 | 0.4369 ± 0.002 | 0.439 ± 0.013 | 0.4346 ± 0.0031 | 0.439 ± 0.014
32 | LSFYLRAVRASL | 0.522 ± 0.035 | 0.777 ± 0.092 | 0.782 ± 0.009 | 0.629 ± 0.015 | 0.7101 ± 0.0032 | 0.562 ± 0.037 | 0.565 ± 0.027 | 0.673 ± 0.015
33 | LSLFPFLPSPCP | 0.748 ± 0.07 | 0.736 ± 0.03 | 0.777 ± 0.0099 | 0.671 ± 0.009 | 0.752 ± 0.035 | 0.674 ± 0.036 | 0.669 ± 0.021 | 0.744 ± 0.018
34 | LSRSAGVGVWVG | 0.391 ± 0.073 | 0.65 ± 0.01 | 0.72 ± 0.019 | 0.647 ± 0.0099 | 0.731 ± 0.013 | 0.243 ± 0.018 | 0.283 ± 0.022 | 0.553 ± 0.026
35 | LSTFFIFLRILR | 0.367 ± 0.028 | 0.289 ± 0.028 | 0.218 ± 0.0087 | 0.324 ± 0.04 | 0.4436 ± 0.0022 | 0.517 ± 0.021 | 0.342 ± 0.028 | 0.436 ± 0.05
36 | LVFLYFHFCCGF | 0.485 ± 0.017 | 0.4768 ± 0.0043 | 0.4909 ± 0.0032 | 0.394 ± 0.026 | 0.543 ± 0.024 | 0.399 ± 0.017 | 0.386 ± 0.013 | 0.5313 ± 0.0006
37 | LVFPPVPSLVLC | 0.352 ± 0.0088 | 0.261 ± 0.018 | 0.278 ± 0.0066 | 0.277 ± 0.036 | 0.376 ± 0.013 | 0.192 ± 0.0059 | 0.223 ± 0.029 | 0.3099 ± 0.0013
38 | LVFPRWACSLVF | 0.3762 ± 0.00049 | 0.344 ± 0.0079 | 0.3661 ± 0.0021 | 0.307 ± 0.025 | 0.426 ± 0.0075 | 0.263 ± 0.0029 | 0.288 ± 0.037 | 0.406 ± 0.019
39 | LVFRVSLVEVVL | 0.32 ± 0.014 | 0.2142 ± 0.0015 | 0.299 ± 0.0071 | 0.232 ± 0.028 | 0.36 ± 0.01 | 0.196 ± 0.0062 | 0.214 ± 0.029 | 0.334 ± 0.014

From the supplement of paper PMC10724198
